These results are taken from patent publication US20150299268A1.

The target of the assay is panel of 118 tier 2,3 viruses. In words: cell-based or functional assay.

B1: N60-B1.1 (antibody, V domains shown)
VH: QLQLQESGPGLVKPSGTLSLTCSVSGGSMNGRNIYWAWIRQTPGKGLEWIGSVDVSDEDAGRTFYKWPIKSRASISADTSKNQFSLKLSSVTVADTGVYYCARETLYYVGNGYYYPLDVFYYNYYMDVWGKGTTVSVSSASTKG
VL: not shown
As for B1, the % of neutralized viruses worked out at 40.2%; the Median IC50 (ug/ml), neutralization is 0.37 µg/mL; the average IC50, neutralization (TZM-bl assay) was 0.44 µg/mL.
